Test results published in PMC7730623.

Assays:
[1] = target: human ameloblastin full-length isoform II (AMBN ISO II) (human) (UniProt Q9NP70); experiment: AUC; sedimentation velocity, 23 uM protein, 20 °C, 10 mM Tris-HCl pH 7.4, 100 mM NaCl, with 10 mM CaCl2; c(s) with bimodal f/f0; average size of heterogeneous oligomers
[2] = target: human ameloblastin full-length isoform II (AMBN ISO II) (human) (UniProt Q9NP70); experiment: AUC; sedimentation velocity, 23 uM protein, 20 °C, 10 mM Tris-HCl pH 7.4, 100 mM NaCl, no Ca2+; c(s) with bimodal f/f0; average size of heterogeneous oligomers
[3] = target: human ameloblastin full-length isoform I (AMBN ISO I) (human) (UniProt Q9NP70); experiment: AUC; sedimentation velocity, 23 uM protein, 20 °C, 10 mM Tris-HCl pH 7.4, 100 mM NaCl, with 10 mM CaCl2; c(s) with bimodal f/f0; average size of heterogeneous oligomers
[4] = target: human ameloblastin full-length isoform I (AMBN ISO I) (human) (UniProt Q9NP70); experiment: AUC; sedimentation velocity, 23 uM protein, 20 °C, 10 mM Tris-HCl pH 7.4, 100 mM NaCl, no Ca2+; c(s) with bimodal f/f0; average size of heterogeneous oligomers

stoichiometry N [1] [monomers] | stoichiometry N [2] [monomers] | stoichiometry N [3] [monomers] | stoichiometry N [4] [monomers] | Substance
20 | 19 |  |  | human ameloblastin full-length isoform II (AMBN ISO II) (from UniProt Q9NP70-2 27-432) (natural protein)
 |  | 33 | 28 | human ameloblastin full-length isoform I (AMBN ISO I) (from UniProt Q9NP70-1 27-447) (natural protein)
